Laboratory results taken from patent US20090142855A1 (published 2009).

Biological target: T1, human IL12RB1 Fc fusion protein (human, UniProt P42701 24-545)
T1 construct: Purchased from R & D systems; Coated on the ELISA plate; also called human IL-12RB1 receptor subunit; human IL12 receptor; not shown: Fc part of the purchased fusion protein (R & D systems)
Assay: ELISA, receptor-Fc coated on plate, titration of cytokine, detection with anti-human p40 monoclonal antibodies
Procedure: To test whether cynomolgus IL-23 binds to the human IL23 receptor (“IL23R”), and whether cynomolgus IL-12 binds to the human IL12 receptor (“IL12RB1”), human IL23R Fc and human IL12RB1 Fc fusion proteins were purchased (R & D systems) for an ELISA assay. To capture IL23R Fc fusion protein, 500 ng of IL23R—Fc protein in 100 μl of PBS (pH 7.4) was put onto a 96-well Maxisorb plate (NUNC, Rochester, N.Y.) and incubated overnight at 4° C. Likewise, to capture IL12RB1 Fc fusion protein, 500 ng of IL12RB1 Fe protein in 100 μl of PBS (pH 7.4) was put onto a 96-well Maxisorb plate (NUNC, Rochester, N.Y.) and incubated overnight at 4° C. For each, the capture solution was thrown away after overnight incubation and the plate was washed with 200 μl per well of TBST (25 mM Tris-HCl pH 7.5, 150 mM NaCl and 0.01% Tween 20) three times. The plate was then blocked with 200 μl per well of TBST containing 5% nonfat dry milk for 30 minutes at room temperature. After blocking, the plate was washed 3 times with 200 μl per well of TBST at room temperature and a titration of cynoIL23 or cynoIL12 in PBS was added to the plate and incubated at room temperature for 1 hour. […] A 100 μl solution containing 2 NH₂SO₄ was added to stop the reaction and the plate was read on a 96 well SpectroMax plate reader at 450 nm.

binding result: binds
B1: cynomolgus IL-12 (single chain: cyno p40 - 2 bovine elastin motifs - cyno p35) (ligand)
chain: IWELKKDVYVVELDWYPDAPGEMVVLTCDTPEEDGITWTLDQSGEVLGSGKTLTIQVKEFGDAGQYTCHKGGEALSHSLLLLHKKEDGIWSTDVLKDQKEPKNKTFLRCEAKNYSGRFTCWWLTTISTDLTFSVKSSRGSSNPQGVTCGAVTLSAERVRGDNKEYEYSVECQEDSACPAAEERLPIEVMVDAIHKLKYENYTSSFFIRDIIKPDPPKNLQLKPLKNSRQVEVSWEYPDTWSTPHSYFSLTFCIQVQGKSKREKKDRIFTDKTSATVICRKNASFSVQAQDRYYSSSWSEWASVPCSVPGVGVPGVGRNLSVATPGPEMFPCLHHSQNLLKAASNTLQKARQILEFYPCTSEEIDHEDITKDKTSTVEACLPLELIKNESCLNSRETSFITNGSCLASRKTSFMMALCLRSIYEDLKMYQVEFKTMNAKLLRDPKRQIFLDQNILGVIDELMQALNFNSETVPQKSSLEEPDFYKTKIKLCILLHAFRIRAVTIDRVMSYLNAS
notes: expressed in 293F cells and purified from the supernatant, about 95% pure; Any vector-derived residues at the junctions or a signal peptide are not described; also called cynoIL12; cyno IL-12
